Data: the supplement of paper PMC11316812
± gives the standard deviation of the averaged measurements.

Tests used:
[1] = tested on: MCF7; assay: percentage of EdU-negative (G0-arrested) nuclei per well, 72 h; higher = more G0 arrest; details: reference: sequence is the full UniProt precursor, the tested protein was the secreted form or ectodomain
[2] = tested on: hTERT-HMEC; assay: as above; details: reference: sequence is the full UniProt precursor, the tested protein was the secreted form or ectodomain
[3] = protein concentration 0.0357143 µM
[4] = protein concentration 0.357143 µM
[5] = protein concentration 0.0240725 µM
[6] = protein concentration 0.240725 µM
[7] = protein concentration 0.0225 µM
[8] = protein concentration 0.019925 µM
[9] = protein concentration 0.19925 µM
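Note: secreted proteins added to cultured cells, EdU pulse at the end, nuclei found by Hoechst imaging, EdU status from nuclear versus surrounding ring intensity ratio, PBS as neutral control.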

MNPTLILAAFCLGIASATLTFDHSLEAQWTKWKAMHNRLYGMNEEGWRRAVWEKNMKMIELHNQEYREGKHSFTMAMNAFGDMTSEEFRQVMNGFQNRKPRKGKVFQEPLFYEAPRSVDWREKGYVTPVKNQGQCGSCWAFSATGALEGQMFRKTGRLISLSEQNLVDCSGPQGNEGCNGGLMDYAFQYVQDNGGLDSEESYPYEATEESCKYNPKYSVANDTGFVDIPKQEKALMKAVATVGPISVAIDAGHESFLFYKEGIYFEPDCSSEDMDHGVLVVGYGFESTESDNNKYWLVKNSWGEEWGMGGYVKMAKDRRNHCGIASAASYPTV
percentage of EdU-negative [1, 3]: 27.8 ± 1.3%
percentage of EdU-negative [1, 4]: 24 ± 1.1%
percentage of EdU-negative [2, 3]: 4.81 ± 0.59%
percentage of EdU-negative [2, 4]: 5.42 ± 0.42%

MGAGATGRAMDGPRLLLLLLLGVSLGGAKEACPTGLYTHSGECCKACNLGEGVAQPCGANQTVCEPCLDSVTFSDVVSATEPCKPCTECVGLQSMSAPCVEADDAVCRCAYGYYQDETTGRCEACRVCEAGSGLVFSCQDKQNTVCEECPDGTYSDEANHVDPCLPCTVCEDTERQLRECTRWADAECEEIPGRWITRSTPPEGSDSTAPSTQEPEAPPEQDLIASTVAGVVTTVMGSSQPVVTRGTTDNLIPVYCSILAAVVVGLVAYIAFKRWNSCKQNKQGANSRPVNQTPPPEGEKLHSDSGISVDSQSLHDQQPHTQTASGQALKGDGGLYSSLPPAKREEVEKLLNGSAGDTWRHLAGELGYQPEHIDSFTHEACPVRALLASWATQDSATLDALLAALRRIQRADLVESLCSESTATSPV
percentage of EdU-negative [1, 5]: 24.6 ± 0.37%
percentage of EdU-negative [1, 6]: 23 ± 1.5%
percentage of EdU-negative [2, 5]: 4.77 ± 0.43%
percentage of EdU-negative [2, 6]: 4.6 ± 0.64%

MIPLLLAALLCVPAGALTCYGDSGQPVDWFVVYKLPALRGSGEAAQRGLQYKYLDESSGGWRDGRALINSPEGAVGRSLQPLYRSNTSQLAFLLYNDQPPQPSKAQDSSMRGHTKGVLLLDHDGGFWLVHSVPNFPPPASSAAYSWPHSACTYGQTLLCVSFPFAQFSKMGKQLTYTYPWVYNYQLEGIFAQEFPDLENVVKGHHVSQEPWNSSITLTSQAGAVFQSFAKFSKFGDDLYSGWLAAALGTNLQVQFWHKTVGILPSNCSDIWQVLNVNQIAFPGPAGPSFNSTEDHSKWCVSPKGPWTCVGDMNRNQGEEQRGGGTLCAQLPALWKAFQPLVKNYQPCNGMARKPSRAYKI
percentage of EdU-negative [1, 7]: 24.5 ± 0.64%
percentage of EdU-negative ([1]; protein concentration 0.225 µM): 26.5 ± 3%
percentage of EdU-negative [2, 7]: 5.36 ± 0.56%
percentage of EdU-negative ([2]; protein concentration 0.225 µM): 6.55 ± 0.55%

MSRREGSLEDPQTDSSVSLLPHLEAKIRQTHSLAHLLTKYAEQLLQEYVQLQGDPFGLPSFSPPRLPVAGLSAPAPSHAGLPVHERLRLDAAALAALPPLLDAVCRRQAELNPRAPRLLRRLEDAARQARALGAAVEALLAALGAANRGPRAEPPAATASAASATGVFPAKVLGLRVCGLYREWLSRTEGDLGQLLPGGSA
percentage of EdU-negative [1, 7]: 25.7 ± 2.9%
percentage of EdU-negative ([1]; protein concentration 0.225 µM): 26.5 ± 1.6%
percentage of EdU-negative [2, 7]: 4.52 ± 0.57%
percentage of EdU-negative ([2]; protein concentration 0.225 µM): 6.17 ± 0.093%

MARAGPAWLLLAIWVVLPSWLSSAKVSSLIERISDPKDLKKLLRTRNNVLVLYSKSEVAAENHLRLLSTVAQAVKGQGTICWVDCGDAESRKLCKKMKVDLSPKDKKVELFHYQDGAFHTEYNRAVTFKSIVAFLKDPKGPPLWEEDPGAKDVVHLDSEKDFRRLLKKEEKPLLIMFYAPWCSMCKRMMPHFQKAATQLRGHAVLAGMNVYSSEFENIKEEYSVRGFPTICYFEKGRFLFQYDNYGSTAEDIVEWLKNPQPPQPQVPETPWADEGGSVYHLTDEDFDQFVKEHSSVLVMFHAPWCGHCKKMKPEFEKAAEALHGEADSSGVLAAVDATVNKALAERFHISEFPTLKYFKNGEKYAVPVLRTKKKFLEWMQNPEAPPPPEPTWEEQQTSVLHLVGDNFRETLKKKKHTLVMFYAPWCPHCKKVIPHFTATADAFKDDRKIACAAVDCVKDKNQDLCQQEAVKGYPTFHYYHYGKFAEKYDSDRTELGFTNYIRALREGDHERLGKKKEEL
percentage of EdU-negative ([1]; protein concentration 0.019 µM): 22.8 ± 0.61%
percentage of EdU-negative ([1]; protein concentration 0.19 µM): 22.5 ± 0.95%
percentage of EdU-negative ([2]; protein concentration 0.019 µM): 4.5 ± 0.56%
percentage of EdU-negative ([2]; protein concentration 0.19 µM): 6.73 ± 0.2%

MAVGKFLLGSLLLLSLQLGQGWGPDARGVPVADGEFSSEQVAKAGGTWLGTHRPLARLRRALSGPCQLWSLTLSVAELGLGYASEEKVIFRYCAGSCPRGARTQHGLALARLQGQGRAHGGPCCRPTRYTDVAFLDDRHRWQRLPQLSAAACGCGG
percentage of EdU-negative [1, 8]: 27.7 ± 0.63%
percentage of EdU-negative [1, 9]: 26.7 ± 3.4%
percentage of EdU-negative [2, 8]: 5.17 ± 0.068%
percentage of EdU-negative [2, 9]: 5.42 ± 0.64%

MSPSPTALFCLGLCLGRVPAQSGPLPKPSLQALPSSLVPLEKPVTLRCQGPPGVDLYRLEKLSSSRYQDQAVLFIPAMKRSLAGRYRCSYQNGSLWSLPSDQLELVATGVFAKPSLSAQPGPAVSSGGDVTLQCQTRYGFDQFALYKEGDPAPYKNPERWYRASFPIITVTAAHSGTYRCYSFSSRDPYLWSAPSDPLELVVTGTSVTPSRLPTEPPSPVAEFSEATAELTVSFTNEVFTTETSRSITASPKESDSPAGPARQYYTKGNLVRICLGAVILIILAGFLAEDWHSRRKRLRHRGRAVQRPLPPLPPLPLTRKSNGGQDGGRQDVHSRGLCS [Q9HCN6]
percentage of EdU-negative [1, 7]: 24.78 ± 0.15%
percentage of EdU-negative ([1]; protein concentration 0.225 µM): 24.9 ± 1.1%
percentage of EdU-negative [2, 7]: 4.56 ± 0.87%
percentage of EdU-negative ([2]; protein concentration 0.225 µM): 5.35 ± 0.6%
